Measurements as given in patent US12024544B2, “CCN3 and CCN3 peptides and analogs thereof for therapeutic use” (Rosalind Franklin University of Medicine & Science, priority 2010, dated 2024).
“Also recorded” adds a separate entry of the source.

How the values were obtained:
BTBR Ob/Ob mouse = BTBR Ob/Ob mouse model of diabetic renal disease; assay type: in vivo
Description: This was carried out using the BTBR Ob/Ob mouse strain that has a defective leptin receptor that results in increased appetite. As a result it rapidly gains weight over the control strain and becomes hyperglycemic at about one month of age, going on to develop renal disease resembling that in humans. This is regarded by some to be the rodent model best mirroring renal disease in humans as a complication of diabetes. Animals were treated with either rCCN3 (SEQ. ID. NO: 67) or CCNp38 (SEQ. ID. NO: 38) beginning at 9 weeks of age, when early renal disease has been documented. The disease was allowed to develop for 9 weeks, then treatment started. Mice were treated 3 times per week for 8 weeks. At 17 weeks, blood and urine were collected, and animals sacrificed with organ samples collected. The effect of treatment with either CCN3 (2 concentrations, 2 or 20× the circulating amounts) or mimic peptide (CCNp38, 2 concentrations, 20 or 200× the equivalent molar circulating concentration of CCN3) was tested. Assays to determine the effect of CCN3 or peptide on expression of target fibrosis genes and clinical pathology were determined using methods as previously described (Riser, Amer J Pathology 2009) and (McIntosh, L M, et al., Selective CCR2-targeted macrophage depletion ameliorates experimental mesangioproliferative glomerulonephritis, Clinical and Experimental Immunology, 2008, 155, 295-303).
This was carried out using the BT/BR Ob/Ob mouse strain that has a defective leptin receptor that results in increased appetite. As a result mice rapidly gain weight over the control strain and become hyperglycemic at about one month of age going on to develop renal disease resembling that in humans. This is regarded by some to be the best rodent model for mirroring renal disease in humans as a complication of diabetes. […] Animals were treated with either rCCN3 (SEQ. ID. NO: 67) or CCNp38 (SEQ. ID. NO: 38) beginning at 9 weeks of age, when early renal disease has been documented. Mice were treated for 8 weeks, then sacrificed and measured for renal disease and other complications, and the effect drug treatment. Test animals were documented to have developed diabetes by 9 weeks, and were randomized for treatment, thus providing equivalent blood glucose levels in each treated group.

CCN2 receptor = assay: adhesion of mesangial cells to CCN2 coated plates; assay type: cell-based, rat; details: 27 nM, rodent mesangial cells
Description: The peptides selected above, and shown in FIG. 5, were synthesized and tested in the three different in vitro assays constructed to model fibrosis, or fibrosis-related pathology in vivo for anti-fibrotic activity. These assays have been used extensively by us and by others, and are highly predictive of related responses in vivo, including those occurring in humans. One in vitro assay, i.e., of cell adhesion in vitro was used. There is a requirement for adhesion in wound healing and fibrosis, with cells responding to the binding of CCN2 to their receptors for other critical activities. Also alteration of cell attachment and receptor binding is implicated in other non-fibrotic diseases, previously named in this application. For this adhesion assay, a well of a culture plate was coated with CCN2 protein and then rat mesangial cells were added for a defined period. […] After a standard period of incubation, the cells are washed to remove non-attached cells. These adherent cells are then removed and counted to determine the percent of the total cells that adhered. The ability of each peptide to block this binding was examined by preincubating cells with the peptide of interest. Controls were used for comparison without CCN2 coating.

B1: CCN3: full-length recombinant human CCN3 protein (SEQ. ID. No. 67), commercial (Pepro Tech) or made in HEK-293 (protein)
chain: MQVAATQRCPPQCPGRCPATPPTCAPGVRAVLDGCSCCLVCARQRGESCSDLEPCDESSGLYCDRSADPSNQTGICTAVEGDNCVFDGVIYRSGEKFQPSCKFQCTCRDGQIGCVPRCQLDVLLPEPNCPAPRKVEVPGECCEKWICGPDEEDSLGGLTLAAYRPEATLGVEVSDSSVNCIEQTTEWTACSKSCGMGFSTRVTNRNRQCEMLKQTRLCMVRPCEQEPEQPTDKKGKKCLRTKKSLKAIHLQFKNCTSLHTYKPRFCGVCSDGRCCTPHNTKTIQAEFQCSPGQIVKKPVMVIGTCTCHTNCPKNNEAFLQELELKTTRGKM
Question: Which “effect on elevated plasma creatinine” value (BTBR Ob/Ob mouse; 17 weeks of diabetes, 8 weeks of treatment 3 times per week, FIG. 35) does the source give for B1 here?
Answer: The value was “reduces or blocks this pathology; also recorded: reduces or blocks this impairment”.

Question: And the “effect on elevated albumin to creatinine ratio” value (BTBR Ob/Ob mouse; 17 weeks of diabetes, 8 weeks of treatment, FIG. 36)?
Answer: The value was “greatly blocks this pathology; also recorded: greatly blocks this renal damage”.

Question: And the “effect on mesangial expansion (PAS staining, image analysis)” value (BTBR Ob/Ob mouse; 17 weeks of diabetes, 8 weeks of treatment, FIG. 37)?
Answer: The value was “greatly block this pathology and treats the disease; also recorded: greatly blocks this pathology”.

Question: What about the “effect on increased renal mRNA levels for CCN2” value (BTBR Ob/Ob mouse; kidney, 8 weeks of treatment, FIG. 38) of the same molecule?
Answer: Its value is “greatly reduces or blocks the increase”.

Question: What about the “effect on increased renal mRNA levels for Col1A2” value (BTBR Ob/Ob mouse; kidney, 8 weeks of treatment, FIG. 39) of the same molecule?
Answer: Its value is “greatly reduces or blocks the increase”.

Question: And the “inhibition of cellular adhesion to CCN2 coated plates” value (CCN2 receptor)?
Answer: The value was “some inhibition”.
